# In patent US7057012 (dated 2006):
# Target: human PTH-2 receptor (human, UniProt P49190 25-550)
# Experiment: competition binding vs 125I-rPTH(1-34), COS-7 cells
# Sequence of human PTH-2 receptor (P49190 25-550): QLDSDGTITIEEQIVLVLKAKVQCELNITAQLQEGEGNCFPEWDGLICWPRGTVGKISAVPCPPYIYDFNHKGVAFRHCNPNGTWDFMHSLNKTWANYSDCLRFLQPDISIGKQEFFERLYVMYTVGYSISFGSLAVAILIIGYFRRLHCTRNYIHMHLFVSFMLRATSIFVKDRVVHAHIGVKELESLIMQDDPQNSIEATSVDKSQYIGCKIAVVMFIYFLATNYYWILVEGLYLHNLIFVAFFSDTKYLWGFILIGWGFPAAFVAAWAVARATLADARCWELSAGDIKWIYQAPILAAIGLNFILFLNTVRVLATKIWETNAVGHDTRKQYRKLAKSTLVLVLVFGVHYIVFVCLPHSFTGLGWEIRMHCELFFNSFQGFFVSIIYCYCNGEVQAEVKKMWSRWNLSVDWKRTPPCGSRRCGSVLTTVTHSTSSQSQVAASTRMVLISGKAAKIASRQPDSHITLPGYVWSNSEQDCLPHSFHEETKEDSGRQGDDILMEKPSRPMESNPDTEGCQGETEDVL
row,Binder,IC50 [nM]
1,SMEAVEWLRKKLQDV [PTH(17-31) 20 Arg→Ala],90500
2,SMERVEWLRKALQDV [PTH(17-31) 27 Lys→Ala],1100
3,SAERVEWLRKKLQDV [PTH(17-31) 18 Met→Ala],1500
4,SMERVEWLRKKLADV [PTH(17-31) 29 Gln→Ala],900
5,SMERVEWLRKKAQDV [PTH(17-31) 28 Leu→Ala],9900
6,SMERVEWLRKKLQDA [PTH(17-31) 31 Val→Ala],3800
7,SMERVEALRKKLQDV [PTH(17-31) 23 Trp→Ala],> 100000
8,AMERVEWLRKKLQDV [PTH(17-31) 17 Ser→Ala],1500

# More lines, now with the values ahead:
row,IC50 [nM],Binder
1,67500,SMERVEWARKKLQDV [PTH(17-31) 24 Leu→Ala]
2,600,SMERVAWLRKKLQDV [PTH(17-31) 22 Glu→Ala]
3,1000,SMERVEWLRKKLQDV [PTH(17-31)]
4,8300,SMERVEWLRAKLQDV [PTH(17-31) 26 Lys→Ala]
5,1100,SMERVEWLRKKLQAV [PTH(17-31) 30 Asp→Ala]
6,3800,SMERVEWLAKKLQDV [PTH(17-31) 25 Arg→Ala]
7,1700,SMERAEWLRKKLQDV [PTH(17-31) 21 Val→Ala]
8,700,SMARVEWLRKKLQDV [PTH(17-31) 19 Glu→Ala]
